Here are results for one substance from paper PMC3506534, “LL-37 Induces Polymerization and Bundling of Actin and Affects Actin Structure” (PLoS ONE, 2012).

The test deals with rabbit skeletal muscle α-actin (rabbit) (UniProt P68135).

Chain of DNase1 (P00639 23-282): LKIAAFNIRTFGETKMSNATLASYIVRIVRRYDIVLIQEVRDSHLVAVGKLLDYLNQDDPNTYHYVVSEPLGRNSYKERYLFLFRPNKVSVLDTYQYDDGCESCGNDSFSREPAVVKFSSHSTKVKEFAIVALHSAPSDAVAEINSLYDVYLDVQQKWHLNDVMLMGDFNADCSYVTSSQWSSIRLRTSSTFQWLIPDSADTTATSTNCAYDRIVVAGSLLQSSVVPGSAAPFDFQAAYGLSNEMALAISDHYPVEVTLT

“DNase1 (from UniProt P00639 23-282) (enzyme)” displayed a disappearance of Mg-F-actin bundles (bundled by 9 µM LL-37) and depolymerization of the filaments after 6 µM DNase1 (low and high speed sedimentation) of 100%.
